Measurements reported in the RNAGym collection of RNA variant scans (doi:10.1093/molbev/msab373).

B1: Azoarcus group I ribozyme (parent)
chain: GUGCCUUGCGCCGGGAAACCACGCAAGGGAUGGUGUCAAAUUCGGCGAAACCUAAGCGCCCGCCCGGGCGUAUGGCAACGCCGAGCCAAGCUUCGGCGCCUGCGCCGAUGAAGGUGUAGAGACUAGACGGCACCCACCUAAGGCAAACGCUAUGGUGAAGGCAUAGUCCAGGGAGUGGCGAAAGUCACACAAACCGG

Variants of: B1
Assay: reverse-splicing fitness (ratio to wild type); higher = more active; in vitro selection; Mg2+ level not given
Procedure, shortened: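 An in vitro group I ribozyme library with randomized positions was T7-transcribed and gel-purified. In triplicate, 10 pmol RNA in EPPS pH 7.5 was reacted with 50 pmoles of a 30-nt RNA substrate for 1 h at 37 °C across several added MgCl2 levels (1–48 mM), then stopped with EDTA. Products were reverse transcribed from a substrate-complementary primer, PCR-amplified and sequenced (HiSeq 4000). Fitness is a variant's read proportion after selection over that before, normalised to wild type.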

Row | Variant | reverse-splicing fitness
1 | C82G A111U A145U C169U U176G | 0.00509
2 | C82G A111U U176C | 0.259
3 | C82G A111U U176A | 0.214
4 | C82G A111U U176G | 0.0695
5 | C82G A120C A145G C150G C169G U176C | 0.0134
6 | C82G A120C A145G C150G C169G U176G | 0.00667
7 | C82G A120C A145G C150G C169G U176A | 0.0134
8 | C82G A120C A145C C169G U176A | 0.0262
9 | C82G A120C A145C C169G U176G | 0.00428
10 | C82G A120C A145C C169G U176C | 0.0161
11 | C82G A120C A145C C150G C169G | 0.00712
12 | C82G A120C A145C C150G C169A | 0.00926
13 | C82G A120C A145C C150G C169U | 0.0101
14 | C82G A120C A145G C150G C169U | 0.0121
15 | C82G A120C A145G C150G C169G | 0.00813
16 | C82G A120C A145G C150G C169A | 0.0104
17 | C82G A120C A145G C150U C169U U176A | 0.0184
18 | C82G A120C A145G C150U C169U U176C | 0.0155
19 | C82G A120C A145G C150U C169U U176G | 0.00474
20 | C82G A111U A145U C150G C169G | 0.00766
21 | C82G A111U A145U C150G C169A | 0.00951

Row | Variant | reverse-splicing fitness
22 | C82G A111U A145U C150G C169U | 0.00956
23 | C82G A120C A145U C169G U176G | 0.00368
24 | C82G A120C A145U C169G U176C | 0.0138
25 | C82G A120C A145U C169G U176A | 0.0121
26 | C82G A120C A145G C150U C169A U176A | 0.0194
27 | C82G A120C A145G C150U C169A U176G | 0.0065
28 | C82G A120C A145G C150U C169A U176C | 0.0158
29 | C82G A120C A145C C150G C169G U176G | 0.00536
30 | C82G A120C A145C C150G C169G U176C | 0.00954
31 | C82G A120C A145C C150G C169G U176A | 0.0101
32 | C82G A120C A145C C150A U176C | 0.0118
33 | C82G A120C A145C C150A U176A | 0.012
34 | C82G A120C A145C C150A U176G | 0.0054
35 | C82G A120C A145C C169A U176G | 0.00378
36 | C82G A120C A145C C169A U176C | 0.0062
37 | C82G A120C A145C C169A U176A | 0.0137
38 | C82G A120C A145U C150A | 0.0209
39 | C82G A120C A145U C150G | 0.0201
40 | C82G A120C A145U C150U | 0.11
41 | C82G A120C A145U C150U C169A U176C | 0.00984
42 | C82G A120C A145U C150U C169A U176A | 0.015

Row | Variant | reverse-splicing fitness
43 | C82G A120C A145U C150U C169A U176G | 0.00538
44 | C82G A111U A145U C150U U176A | 0.124
45 | C82G A111U A145U C150U U176C | 0.152
46 | C82G A111U A145U C150U U176G | 0.043
47 | C82G A120C A145U C150G C169A U176A | 0.0119
48 | C82G A120C A145U C150G C169A U176C | 0.0102
49 | C82G A120C A145U C150G C169A U176G | 0.00473
50 | C82G A120C C150A U176A | 0.0182
51 | C82G A120C C150A U176G | 0.0105
52 | C82G A120C C150A U176C | 0.0287
53 | C82G A120C A145G C150G C169U U176G | 0.00789
54 | C82G A120C A145G C150G C169U U176C | 0.0134
55 | C82G A120C A145G C150G C169U U176A | 0.0128
56 | C82G A120C A145G C150U U176C | 0.0797
57 | C82G A120C A145G C150U U176G | 0.0154
58 | C82G A120C A145G C150U U176A | 0.0566
59 | C82G A111U C169U U176C | 0.0158
60 | C82G A111U C169U U176G | 0.00639
61 | C82G A111U C169U U176A | 0.0177
62 | C82G A120C A145U C150A C169G U176A | 0.014
63 | C82G A120C A145U C150A C169G U176C | 0.0161

Row | Variant | reverse-splicing fitness
64 | C82G A120C A145U C150A C169G U176G | 0.00461
65 | C82G A120C A145G C150A C169A U176G | 0.00671
66 | C82G A120C A145G C150A C169A U176A | 0.0227
67 | C82G A120C A145G C150A C169A U176C | 0.0236
68 | C82G A120C A145U C150G U176C | 0.0164
69 | C82G A120C A145U C150G U176G | 0.00444
70 | C82G A120C A145U C150G U176A | 0.00942
71 | C82G A120C C150G | 0.0159
72 | C82G A120C C150A | 0.0228
73 | C82G A111U A145U U176C | 0.246
74 | C82G A111U A145U U176A | 0.211
75 | C82G A111U A145U U176G | 0.0842
76 | C82G A120C A145G C150G C169A U176G | 0.00912
77 | C82G A120C A145G C150G C169A U176A | 0.0143
78 | C82G A120C A145G C150G C169A U176C | 0.0145
79 | C82G A120C A145C C150G C169A U176C | 0.00752
80 | C82G A120C A145C C150G C169A U176G | 0.00496
81 | C82G A120C A145C C150G C169A U176A | 0.0101
82 | C82G A111U A145U C150A C169U U176A | 0.0141
83 | C82G A111U A145U C150A C169U U176C | 0.0129
84 | C82G A111U A145U C150A C169U U176G | 0.00579
